This series is described as follows: immunoblot, full-length as % of total β1AR, CHO-Pro5. The settings on record: glycan lost.

Substance β1-adrenergic receptor (β1AR): S37A displayed an other: N-terminal proteolytic cleavage, other: decrease in full-length β1AR (control: WT-β1AR) of 21.7%. Same read-out and setting: then β1-adrenergic receptor (β1AR): S41A, with 56.8%. For the setting “control: 31H32A/52A53A-β1AR”, “β1-adrenergic receptor (β1AR): S41A in 31H32A/52A53A backbone” had an other: N-terminal proteolytic cleavage, other: decrease in full-length β1AR of 69.7%.

The record behind these values is paper PMC8068644.
